Experimental data published in article PMC3210727 (Science (New York, N.Y.), 2011).

What was measured:
Test in all cases: flow cytometry on cells
[1] = biological target: surface-expressed H7 HA, cleaved (HA) (Influenza A virus H7, strain not named; …, UniProt Q6VMK1)
[2] = biological target: surface-expressed H3 HA from A/Hong Kong/1/1968, cleaved (HA) (Influenza A virus (strain A/Hong …, UniProt Q91MA7))
[3] = biological target: surface-expressed H7 HA, uncleaved (HA0) (Influenza A virus H7, strain not named; …, UniProt Q6VMK1)
[4] = biological target: surface-expressed H3 HA from A/Hong Kong/1/1968, uncleaved precursor (HA0) (Influenza A virus (strain A/Hong …, UniProt Q91MA7))
[5] = biological target: surface-expressed H3 HA from A/Hong Kong/24/1985, cleaved (HA) (Influenza A virus A/Hong Kong/24/1985 …, UniProt Q38TK5, strain)

Measured: binding result

B1: human monoclonal antibody CR8020 (antibody, V domains shown)
VH: QVQLQQSGAEVKTPGASVKVSCKASGYTFTSFGVSWIRQAPGQGLEWIGWISAYNGDTYYAQKFQARVTMTTDTSTTTAYMEMRSLRSDDTAVYYCAREPPLFYSSWSLDNWGQGTLVTVSS
VL: EIVMTQSPGTLSLSPGERATLSCRASQSVSMNYLAWFQQKPGQAPRLLIYGASRRATGIPDRISGSGSGTDFTLTISRLEPADFAVYYCQQYGTSPRTFGQGAKVEIK
binds: all assays above
